Paper PMC5945547, “SAAV2152 is a single-stranded DNA binding protein: the third SSB in Staphylococcus aureus” (Oncotarget, 2018)

How the values were obtained:
SaPriA = target: T1, SaPriA (Staphylococcus aureus, UniProt Q2G266); experiment: ATPase assay, thin-layer chromatography with autoradiography; type: biochemical; conditions: 0.4 mM [γ-32P]ATP, 0.12 μM SaPriA, 0.1 μM PS4/PS3-dT30 DNA, 40 mM Tris pH 8.0, 10 mM NaCl, 2 mM DTT, 2.5 mM MgCl2, 1 h; labelled compound
T1 construct: gene priA; recombinant
T1 sequence (Q2G266 1-802): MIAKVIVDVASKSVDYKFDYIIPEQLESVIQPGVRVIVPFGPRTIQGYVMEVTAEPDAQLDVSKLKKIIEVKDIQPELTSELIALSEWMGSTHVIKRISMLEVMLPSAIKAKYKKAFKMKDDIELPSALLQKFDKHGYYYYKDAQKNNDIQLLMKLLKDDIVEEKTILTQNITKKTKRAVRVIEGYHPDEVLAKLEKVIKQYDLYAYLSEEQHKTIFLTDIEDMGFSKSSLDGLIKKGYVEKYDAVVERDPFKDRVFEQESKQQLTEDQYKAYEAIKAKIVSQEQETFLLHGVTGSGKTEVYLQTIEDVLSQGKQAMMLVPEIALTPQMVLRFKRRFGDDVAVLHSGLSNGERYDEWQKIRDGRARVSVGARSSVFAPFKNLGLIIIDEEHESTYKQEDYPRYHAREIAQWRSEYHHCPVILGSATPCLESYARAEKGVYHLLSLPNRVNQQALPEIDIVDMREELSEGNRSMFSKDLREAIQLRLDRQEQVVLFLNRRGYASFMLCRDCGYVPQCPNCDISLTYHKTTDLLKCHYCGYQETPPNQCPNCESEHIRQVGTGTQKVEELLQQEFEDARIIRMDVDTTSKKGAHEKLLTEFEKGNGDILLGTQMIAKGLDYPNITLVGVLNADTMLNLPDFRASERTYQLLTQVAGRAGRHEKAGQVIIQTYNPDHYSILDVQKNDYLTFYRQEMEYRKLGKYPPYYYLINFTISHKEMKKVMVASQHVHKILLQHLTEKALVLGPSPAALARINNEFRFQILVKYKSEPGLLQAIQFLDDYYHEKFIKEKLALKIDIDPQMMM

[1] = target: SaSsbC with a His tag (product of S. aureus ssb gene SAAV2152) (S. aureus subsp. aureus ED98); experiment: SEC; gel filtration, Superdex 200 prep grade, SaSsbC 2 mg/mL in Buffer B (20 mM HEPES, 100 mM NaCl, pH 7.0), column calibrated with proteins of known mass; self-association, tetramer
[2] = target: SaSsbC with a His tag (product of S. aureus ssb gene SAAV2152) (S. aureus subsp. aureus ED98); experiment: cross-linking; glutaraldehyde (0.1% to 5%), SaSsbC 2.5 uM, 4 C, 30 min, Coomassie-stained SDS-PAGE; self-association, tetramer

| stoichiometry N [1] | stoichiometry N [2] | Compound | ATPase assay, thin-layer chromatography with autoradiography (SaPriA) |
| --- | --- | --- | --- |
|  |  | Nc1ncnc2c1ncn2[C@@H]1O[C@H](COP(=O)(O)OP(=O)(O)OP(=O)(O)O)[C@@H](O)[C@H]1O [ATP] | SaPriA could hydrolyze ATP on its own |
| 4 | 4 | SaSsbC with a His tag (product of S. aureus ssb gene SAAV2152) (natural protein) |  |
